“Also recorded” adds a separate entry of the source. No end group written: not given here.
What was measured:
Type in all cases: binding
[1] = target: T1, JNK1 (Homo sapiens, UniProt P45983); experiment: GST-fusion pull-down from cell lysates, Flag immunoblot: JNK1; settings: for binding to JNK1: 5 μg GST-fusion protein on glutathione-Sepharose, Flag-JNK1 lysate, one hour 4° C.; for level of binding to JNK1 compared with JNK2: GST pull-down, Flag immunoblot
T1 construct: expressed in transfected cells
Method: (§1) To test whether JIP-1 binding to JNK is also isoform-dependent, a binding assay was utilized. Cell lysates (1 ml in TLB) containing JNK1, JNK2, or p38 MAP kinase, each tagged with the Flag epitope, were incubated with 5 μg GST-fusion proteins pre-bound to 10 μl glutathione-Sepharose. The GST fusion proteins used contain residues 127-202 (SEQ ID NO:15), 203-281 (SEQ ID NO:16), 164-240 (SEQ ID NO:17), or 127-281 (SEQ ID NO:4) of JIP-1. The GST-ATF2 fusion protein contains residues 1-109 of ATF2, and the GST-Jun fusion protein contains residues 1-79 of c-Jun. After incubation for one hour at 4° C. and three washes with TLB, bound proteins were detected by protein immunoblot analysis with the M2 monoclonal antibody, which is specific for the Flag epitope. Dérijard, et al., supra; Sluss et al., supra; Gupta et al., supra. […] This finding is consistent with the results of previous studies. In contrast, when GST-JIP-1 fusion proteins containing residues 127-202 or 127-281 of JIP-1 were tested in the assay, these proteins bound both JNK1 and JNK2.
(§2) The GST-JIP-1 fusion proteins containing various portions of the JIP-1 gene were used to define regions of JIP-1 that are required for JNK interaction. A GST-JIP-1 fusion protein containing residues 127-281 of JIP-1 bound both JNK1 and JNK2.
(§3) To more precisely define the JIP-1 sequence required for JNK binding activity, additional […] fusion proteins were constructed. These fusion proteins contained residues 135-202 (SEQ ID NO:18), 144-202 (SEQ ID NO:19), 154-202 (SEQ ID NO:20), 164-202 (SEQ ID NO:21), 127-143 (SEQ ID NO:22), 127-153 (SEQ ID NO:23), or 127-163 (SEQ ID NO:24) of JIP-1. Proteins containing residues 127-202, 135-202, 144-202, […], and 127-163 all bound both JNK1 and JNK2. Thus, JIP-1 residues 144-163 are important for the interaction of JIP-1 with JNK.

[2] = target: T2, JNK2 (Homo sapiens, UniProt P45984); experiment: GST-fusion pull-down from cell lysates, Flag immunoblot: JNK2; settings: 5 μg GST-fusion protein on glutathione-Sepharose, Flag-JNK2 lysate, one hour 4° C.
T2 construct: expressed in transfected cells
Method: as §1, §2, §3

[3] = target: T3, JIP-1-JNK interaction (JNK1) (Homo sapiens, UniProt P45983); experiment: Synthetic peptide competition of JIP-1-JNK interaction (GST-JIP-1 127-281 pull-down); settings: for effect of peptide on JIP-1 binding to JNK1: peptide 0, 4, 8, 16, 32, and 64 μg/ml, GST-JIP-1 (residues 127-281); for inhibition of JIP-1 binding to JNK by peptide: synthetic peptides 64 μg/ml, JNK1 binding to GST-JIP-1 residues 127-281
T3 construct: expressed in transfected cells; GST-JIP-1 from a bacterial pGEX-3X vector
Method: The effect of increasing concentrations (0, 4, 8, 16, 32, and 64 μg/ml) of a synthetic peptide corresponding to JIP-1 residues 148-174 (SEQ. ID NO:3) or a control peptide having a scrambled sequence (SEQ ID NO:12) on JIP-1-JNK interaction was examined. Peptides were synthesized using an Applied Biosystems machine. Cell lysates containing Flag epitope-tagged JNK were incubated with GST-JIP-1 (residues 127-281) prebound to glutathione-Sepharose. The beads were washed, and bound proteins were detected by protein immunoblot analysis with a Flag-specific antibody.
The JNK binding domain of JIP-1 contains three amino acids, Lys-155, Thr-159, and Leu-160, that are conserved in the JNK binding domains of ATF2 and c-Jun (FIG. 2). A hydrophobic amino acid, Leu, is found at residue 162 of JIP-1. ATF2 and c-Jun also contain hydrophobic amino acids (ATF2, Phe; c-Jun, Leu) in the position corresponding to residue 162 of JIP-1. To test if these conserved residues are involved in JNK binding, the wild type JIP-1 JBD (residues 148-174) was substituted with glycines in these positions to produce the peptides shown in FIG. 3 (SEQ ID NOs:7-11). The mutant peptides are identical to the wild type peptide except for the indicated glycine substitutions. The binding of JNK1 to GST, as well as a GST fusion protein containing JIP-1 residues 127-281, was examined in the absence and presence of the synthetic peptides (64 μg/ml). A peptide with a scrambled sequence (SEQ ID NO:12) was used as a control. […] In contrast, the control peptide caused no change in JNK binding.
Peptides suspected of having JIP-1 activity can be tested in the JNK binding assay described supra. Peptides are synthesized by methods that are well known to those skilled in the art; for example, using an Applied Biosystems synthesizer. Cell lysates containing Flag epitope-tagged JNK are incubated with GST-JIP-1 (residues 127-281) bound to glutathione-Sepharose, either with or without synthetic peptides (0, 4, 8, 16, 32 or 64 μg/ml), for one hour at 4° C. The beads are washed in TLB, and the bound proteins are detected by protein immunoblot analysis with a Flag-specific antibody, e.g., M2. Synthetic peptides with JIP-1 activity are those which inhibit the interaction of JIP-1 with JNK, as detected in this assay.

T1 sequence (P45983 1-384 isoform P45983-2): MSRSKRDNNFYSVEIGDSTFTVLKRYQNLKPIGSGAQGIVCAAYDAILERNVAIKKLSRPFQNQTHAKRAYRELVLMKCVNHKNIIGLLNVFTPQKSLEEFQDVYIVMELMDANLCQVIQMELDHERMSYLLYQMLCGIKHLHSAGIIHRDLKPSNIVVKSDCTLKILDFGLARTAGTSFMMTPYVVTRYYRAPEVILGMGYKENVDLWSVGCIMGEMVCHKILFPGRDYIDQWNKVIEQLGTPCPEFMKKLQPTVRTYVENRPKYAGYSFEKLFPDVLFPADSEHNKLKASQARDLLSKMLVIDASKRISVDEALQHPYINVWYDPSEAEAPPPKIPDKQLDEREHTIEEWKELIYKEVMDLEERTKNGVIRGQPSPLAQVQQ
T3 sequence (P45983 1-384 isoform P45983-2): as above

Molecule | binding to JNK1 [1] | binding to JNK2 [2] | effect of peptide on JIP-1 binding to JNK1 [3] | inhibition of JIP-1 binding to JNK by peptide [3] | level of binding to JNK1 compared with JNK2 [1]
GST-JIP-1 residues 127-163: GST fusion protein containing residues 127-163 of JIP-1 (PKAESNQDPAPRSQGQGPGTGSGDTYRPKRPTTLNLF; also: GST fusion; UniProt Q9WVI9 127-163, looked up, fragment) | bound | bound |  |  | 
GST-JIP-1 residues 154-202: GST fusion protein containing residues 154-202 of JIP-1 (PKRPTTLNLFPQVPRSQDTLNNNSLGKKHSWQDRVSRSSSPLKTGEQTP; also: GST fusion; UniProt Q9WVI9 154-202, looked up, fragment) | bound | bound |  |  | 
GST-JIP-1 residues 144-202: GST fusion protein containing residues 144-202 of JIP-1 (PGTGSGDTYRPKRPTTLNLFPQVPRSQDTLNNNSLGKKHSWQDRVSRSSSPLKTGEQTP; also: GST fusion; UniProt Q9WVI9 144-202, looked up, fragment) | bound | bound |  |  | 
GST-ATF2: GST fusion protein containing residues 1-109 of ATF2 (protein, left off: a dimerising Fc or GST, GST fusion protein containing residues 1-109 of ATF2) MKFKLHVNSARQYKDLWNMSDDKPFLCTAPGCGQRFTNEDHLAVHKHKHEMTLKFGPARNDSVIVADQTPTPTRFLKNCEEVGLFNELASPFENEFKKASEDDIKKMPL |  |  |  |  | greater than binding to JNK2
GST-JIP-1 residues 135-202: GST fusion protein containing residues 135-202 of JIP-1 (protein, UniProt Q9WVI9 135-202, looked up, fragment, GST fusion) PAPRSQGQGPGTGSGDTYRPKRPTTLNLFPQVPRSQDTLNNNSLGKKHSWQDRVSRSSSPLKTGEQTP | bound | bound |  |  | 
GST-JIP-1 residues 127-281: GST fusion protein containing residues 127-281 of JIP-1 (protein, left off: a dimerising Fc or GST) PKAESNQDPAPRSQGQGPGTGSGDTYRPKRPTTLNLFPQVPRSQDTLNNNSLGKKHSWQDRVSRSSSPLKTGEQTPPHEHICLSDELPPQGSPVPTQDRGTSTDSPCRRSAATQMAPPSGPPATAPGGRGHSHRDRIHYQADVRLEATEEIYLTP | bound | bound |  |  | 
GST-JIP-1 residues 127-202: GST fusion protein containing residues 127-202 of JIP-1 (amino terminal region) (protein, UniProt Q9WVI9 127-202, looked up, fragment, GST fusion) PKAESNQDPAPRSQGQGPGTGSGDTYRPKRPTTLNLFPQVPRSQDTLNNNSLGKKHSWQDRVSRSSSPLKTGEQTP | bound; also recorded: JNK binding activity was observed | bound; also recorded: JNK binding activity was observed |  |  | 

Next, values leading:

binding to JNK1 [1] | binding to JNK2 [2] | effect of peptide on JIP-1 binding to JNK1 [3] | inhibition of JIP-1 binding to JNK by peptide [3] | level of binding to JNK1 compared with JNK2 [1] | Molecule
 |  | dose-dependent decrease | dose-dependent inhibition |  | SGDTYRPKRPTTLNLFPQVPRSQDTLN [JIP-1 residues 148-174, synthetic peptide corresponding to JIP-1 residues 148-174, core of the JBD]
 |  | no effect | no change |  | SEQ ID NO:12: control peptide having a scrambled sequence (NSLGTDDTQYSRRPPKVRQPNPTFTLL) [reference compound]
 |  |  |  | greater than binding to JNK2 | GST-Jun: GST fusion protein containing residues 1-79 of c-Jun (protein, left off: a dimerising Fc or GST, GST fusion protein containing residues 1-79 of c-Jun) MTAKMETTFYDDALNASFLPSESGPYGYSNPKILKQSMTLNLADPVGSLKPHLRAKNSDLLTSPDVGLLKLASPELERL
No JNK binding was detected | No JNK binding was detected |  |  |  | GST-JIP-1 residues 164-240: GST fusion protein containing residues 164-240 of JIP-1 (central region) (protein, UniProt Q9WVI9 164-240, looked up, fragment, GST fusion) PQVPRSQDTLNNNSLGKKHSWQDRVSRSSSPLKTGEQTPPHEHICLSDELPPQGSPVPTQDRGTSTDSPCRRSAATQ
No JNK binding was detected | No JNK binding was detected |  |  |  | GST-JIP-1 residues 203-281: GST fusion protein containing residues 203-281 of JIP-1 (carboxy terminal region) (protein, UniProt Q9WVI9 203-281, looked up, fragment, GST fusion) PHEHICLSDELPPQGSPVPTQDRGTSTDSPCRRSAATQMAPPSGPPATAPGGRGHSHRDRIHYQADVRLEATEEIYLTP
